Tests used:
[1] = target: synthetic Aβ1-42 (aggregated in the ELISAs) (human) (UniProt P05067); assay: ELISA on aggregated synthetic Aβ1-42; given as ED50
[2] = target: soluble Aβ1-42, [125I]Aβ1-42 (human) (UniProt P05067); assay: capture radioimmunoassay, 50,000 CPM of 125I-Aβ 1-42 (or 125I-Aβ 1-40)

Substance | EC50 [1] [nM] | % of radioactive counts bound at 10 µg/ml [2] [%]
monoclonal antibody 12B4 (IgG2a) | 0.667 | 7
monoclonal antibody 10D5 (IgG1) | 0.053 | 2

— patent publication US20060198851A1
